Source: patent US20200262877A1, “ION CHANNEL-BINDING PEPTIDES AND METHODS OF USE THEREOF” (priority 2017, published 2020)

How the values were obtained:
Nav1.7 = biological target: T1, Nav1.7 (Homo sapiens, UniProt Q15858); assay: cell-based; type: cell-based; conditions: 100% = no change; for Activity of Nav1.7 with peptide, expressed as a percentage of the reference compound: peptide at 0.2 μM; for Activity of Nav1.7 with peptide (percentage of the reference compound): peptide at 20 μM
T1 construct: host or cells: HEK293 or CHO

NR2A = biological target: T2, NR2A (Homo sapiens, UniProt Q12879); assay: Ion channel panel (IonWorks Barracuda): NR2A; type: cell-based; conditions: 100% = no change, <100% = inhibition
T2 construct: host or cells: HEK293 or CHO
Procedure, shortened: (§1)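 Transfected HEK293 or CHO cells were exposed for at least 5 min to peptides at 200 nM and 20 μM final, tested in duplicate, in HEPES-buffered physiological saline. Activation was taken as peptide-plus-agonist current over control current ×100, and inhibition as 1 minus that ratio ×100. Each channel's control was its own reference compound.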

NR2B = biological target: T3, NR2B (Homo sapiens, UniProt Q13224); assay: Ion channel panel (IonWorks Barracuda): NR2B; type: cell-based; conditions: 100% = no change, <100% = inhibition
T3 construct: host or cells: HEK293 or CHO
Procedure, shortened: as §1

Cav2.2 = biological target: T4, Cav2.2 (Homo sapiens, UniProt Q00975); assay: cell-based; conditions: 100% = no change, <100% = inhibition
T4 construct: host or cells: HEK293 or CHO
Procedure, shortened: as §1

Cav2.1 = biological target: T5, Cav2.1 (Homo sapiens, UniProt O00555); assay: cell-based; conditions: 100% = no change, <100% = inhibition
T5 construct: host or cells: HEK293 or CHO
Procedure, shortened: as §1

Kv2.1 = biological target: T6, Kv2.1 (Homo sapiens, UniProt Q14721); assay: cell-based; conditions: 100% = no change, <100% = inhibition
T6 construct: host or cells: HEK293 or CHO
Procedure, shortened: as §1

TRPA1 = biological target: T7, TRPA1 (Homo sapiens, UniProt O75762); assay: Ion channel panel (IonWorks Barracuda): TRPA1; type: cell-based; conditions: 100% = no change, <100% = inhibition
T7 construct: host or cells: HEK293 or CHO
Procedure, shortened: as §1

α3β4 = biological target: T8, α3β4 (Homo sapiens, UniProt P30926+P32297); assay: Ion channel panel (IonWorks Barracuda): α3β4; type: cell-based; conditions: 100% = no change, <100% = inhibition
T8 construct: host or cells: HEK293 or CHO
Procedure, shortened: as §1

α4β2 = biological target: T9, α4β2 (Homo sapiens, UniProt P17787+P43681); assay: Ion channel panel (IonWorks Barracuda): α4β2; type: cell-based; conditions: 100% = no change, <100% = inhibition
T9 construct: host or cells: HEK293 or CHO
Procedure, shortened: as §1

TRPV1 = biological target: T10, TRPV1 (Homo sapiens, UniProt Q8NER1); assay: Ion channel panel (IonWorks Barracuda): TRPV1; type: cell-based; conditions: 100% = no change, <100% = inhibition
T10 construct: host or cells: HEK293 or CHO
Procedure, shortened: as §1

hERG = hERG (Homo sapiens, UniProt Q12809); assay: in vitro; conditions: 100% = no change, <100% = inhibition
Procedure, shortened: as §1

Nav1.5 = Nav1.5 (Homo sapiens, UniProt Q14524); assay: in vitro; conditions: 100% = no change; for Activity of Nav1.5 with peptide, expressed as a percentage of the reference compound: peptide at 0.2 μM; for Activity of Nav1.5 with peptide (percentage of the reference compound): peptide at 20 μM
Procedure, shortened: as §1

Kir2.1 = biological target: T11, Kir2.1 (Homo sapiens, UniProt P63252); assay: Ion channel panel (IonWorks Barracuda): Kir2.1; type: cell-based; conditions: 100% = no change, <100% = inhibition
T11 construct: host or cells: HEK293 or CHO
Procedure, shortened: as §1

Kv1.1 = biological target: T12, Kv1.1 (Homo sapiens, UniProt Q09470); assay: cell-based; type: cell-based; conditions: 100% = no change, <100% = inhibition
T12 construct: host or cells: HEK293 or CHO
Procedure, shortened: as §1

Kv1.3 = biological target: T13, Kv1.3 (Homo sapiens, UniProt P22001); assay: cell-based; type: cell-based; conditions: 100% = no change, <100% = inhibition
T13 construct: host or cells: HEK293 or CHO
Procedure, shortened: as §1

Kv1.2 = biological target: T14, Kv1.2 (Homo sapiens, UniProt P16389); assay: cell-based; type: cell-based; conditions: 100% = no change, <100% = inhibition
T14 construct: host or cells: HEK293 or CHO
Procedure, shortened: as §1

5HT3a = biological target: T15, 5HT3a (Homo sapiens, UniProt P46098); assay: Ion channel panel (IonWorks Barracuda): 5HT3a; type: cell-based
T15 construct: host or cells: HEK293 or CHO
T15 sequence (P46098 whole entry, looked up): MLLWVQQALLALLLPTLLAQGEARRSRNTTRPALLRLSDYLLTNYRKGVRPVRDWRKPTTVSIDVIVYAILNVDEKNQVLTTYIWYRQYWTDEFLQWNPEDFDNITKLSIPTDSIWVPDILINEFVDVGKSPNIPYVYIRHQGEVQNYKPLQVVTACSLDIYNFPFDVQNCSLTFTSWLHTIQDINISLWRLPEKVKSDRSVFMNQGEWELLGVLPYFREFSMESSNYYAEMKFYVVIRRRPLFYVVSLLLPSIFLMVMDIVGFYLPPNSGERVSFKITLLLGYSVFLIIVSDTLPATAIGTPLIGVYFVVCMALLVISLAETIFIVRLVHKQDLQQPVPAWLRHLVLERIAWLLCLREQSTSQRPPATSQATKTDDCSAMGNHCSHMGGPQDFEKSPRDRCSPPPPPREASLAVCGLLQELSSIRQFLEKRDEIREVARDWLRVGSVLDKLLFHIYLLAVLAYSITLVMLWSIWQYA
Procedure, shortened: as §1

GABA = assay: Ion channel panel (IonWorks Barracuda): GABA; type: cell-based; conditions: 100% = no change, <100% = inhibition
Procedure, shortened: as §1

[1] = first of two Nav1.7 columns (probably TP1)
[2] = second of two Nav1.7 columns (probably TP2)
[3] = first of two Nav1.5 columns (probably TP1)
[4] = second of two Nav1.5 columns (probably TP2)

Nav1.5, sequence (Q14524 whole entry): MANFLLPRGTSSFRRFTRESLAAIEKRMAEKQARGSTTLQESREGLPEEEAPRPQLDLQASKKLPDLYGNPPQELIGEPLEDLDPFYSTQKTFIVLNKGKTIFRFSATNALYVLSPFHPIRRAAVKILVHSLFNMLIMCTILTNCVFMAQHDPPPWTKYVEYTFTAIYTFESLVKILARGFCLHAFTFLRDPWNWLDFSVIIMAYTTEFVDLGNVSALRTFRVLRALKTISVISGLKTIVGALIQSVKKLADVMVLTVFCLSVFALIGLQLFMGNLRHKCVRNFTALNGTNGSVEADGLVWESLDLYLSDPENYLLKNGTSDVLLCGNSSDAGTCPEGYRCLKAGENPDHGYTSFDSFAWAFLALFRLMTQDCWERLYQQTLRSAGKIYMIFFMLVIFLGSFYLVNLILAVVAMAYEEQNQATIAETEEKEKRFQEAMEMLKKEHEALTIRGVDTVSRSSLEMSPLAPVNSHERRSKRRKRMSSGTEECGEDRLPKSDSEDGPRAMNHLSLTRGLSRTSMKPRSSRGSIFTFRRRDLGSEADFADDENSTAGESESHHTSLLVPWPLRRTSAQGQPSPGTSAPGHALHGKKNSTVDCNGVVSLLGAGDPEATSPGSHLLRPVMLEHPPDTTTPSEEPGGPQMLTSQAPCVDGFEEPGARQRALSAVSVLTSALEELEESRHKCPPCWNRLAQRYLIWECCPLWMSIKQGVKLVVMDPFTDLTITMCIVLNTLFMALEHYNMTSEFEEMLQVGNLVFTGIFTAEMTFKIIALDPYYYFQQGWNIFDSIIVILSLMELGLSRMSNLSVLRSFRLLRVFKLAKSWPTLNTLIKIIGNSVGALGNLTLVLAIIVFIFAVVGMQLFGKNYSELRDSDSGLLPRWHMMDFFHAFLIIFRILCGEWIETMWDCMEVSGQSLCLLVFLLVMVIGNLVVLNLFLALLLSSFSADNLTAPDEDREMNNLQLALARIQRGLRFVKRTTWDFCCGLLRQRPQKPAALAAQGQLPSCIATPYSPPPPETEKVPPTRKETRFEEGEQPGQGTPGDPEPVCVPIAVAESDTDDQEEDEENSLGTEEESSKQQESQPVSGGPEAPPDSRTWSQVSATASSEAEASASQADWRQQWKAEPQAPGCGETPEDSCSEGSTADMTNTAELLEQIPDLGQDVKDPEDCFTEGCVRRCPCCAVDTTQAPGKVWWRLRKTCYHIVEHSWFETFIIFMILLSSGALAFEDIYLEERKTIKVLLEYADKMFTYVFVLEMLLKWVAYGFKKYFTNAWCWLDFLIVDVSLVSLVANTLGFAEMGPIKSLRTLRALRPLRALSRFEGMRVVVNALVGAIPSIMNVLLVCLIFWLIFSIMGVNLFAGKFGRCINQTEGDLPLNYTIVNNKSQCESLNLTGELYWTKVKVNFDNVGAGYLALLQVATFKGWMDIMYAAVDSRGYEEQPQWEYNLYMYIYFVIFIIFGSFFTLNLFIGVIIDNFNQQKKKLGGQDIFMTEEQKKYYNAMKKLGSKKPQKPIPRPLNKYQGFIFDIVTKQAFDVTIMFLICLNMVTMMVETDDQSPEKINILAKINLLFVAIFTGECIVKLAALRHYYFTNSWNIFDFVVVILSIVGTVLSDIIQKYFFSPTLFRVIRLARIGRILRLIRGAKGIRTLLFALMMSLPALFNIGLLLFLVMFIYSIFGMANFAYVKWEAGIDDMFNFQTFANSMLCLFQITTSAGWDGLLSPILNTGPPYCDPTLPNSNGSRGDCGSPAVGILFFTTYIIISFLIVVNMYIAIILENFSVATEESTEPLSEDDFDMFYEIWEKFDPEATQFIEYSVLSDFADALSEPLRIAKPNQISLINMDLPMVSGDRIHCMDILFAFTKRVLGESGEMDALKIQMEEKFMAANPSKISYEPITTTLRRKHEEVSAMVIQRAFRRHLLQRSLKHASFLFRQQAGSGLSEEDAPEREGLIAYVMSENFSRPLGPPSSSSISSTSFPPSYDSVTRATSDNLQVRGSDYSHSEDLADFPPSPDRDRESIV
T1 sequence (Q15858 whole entry): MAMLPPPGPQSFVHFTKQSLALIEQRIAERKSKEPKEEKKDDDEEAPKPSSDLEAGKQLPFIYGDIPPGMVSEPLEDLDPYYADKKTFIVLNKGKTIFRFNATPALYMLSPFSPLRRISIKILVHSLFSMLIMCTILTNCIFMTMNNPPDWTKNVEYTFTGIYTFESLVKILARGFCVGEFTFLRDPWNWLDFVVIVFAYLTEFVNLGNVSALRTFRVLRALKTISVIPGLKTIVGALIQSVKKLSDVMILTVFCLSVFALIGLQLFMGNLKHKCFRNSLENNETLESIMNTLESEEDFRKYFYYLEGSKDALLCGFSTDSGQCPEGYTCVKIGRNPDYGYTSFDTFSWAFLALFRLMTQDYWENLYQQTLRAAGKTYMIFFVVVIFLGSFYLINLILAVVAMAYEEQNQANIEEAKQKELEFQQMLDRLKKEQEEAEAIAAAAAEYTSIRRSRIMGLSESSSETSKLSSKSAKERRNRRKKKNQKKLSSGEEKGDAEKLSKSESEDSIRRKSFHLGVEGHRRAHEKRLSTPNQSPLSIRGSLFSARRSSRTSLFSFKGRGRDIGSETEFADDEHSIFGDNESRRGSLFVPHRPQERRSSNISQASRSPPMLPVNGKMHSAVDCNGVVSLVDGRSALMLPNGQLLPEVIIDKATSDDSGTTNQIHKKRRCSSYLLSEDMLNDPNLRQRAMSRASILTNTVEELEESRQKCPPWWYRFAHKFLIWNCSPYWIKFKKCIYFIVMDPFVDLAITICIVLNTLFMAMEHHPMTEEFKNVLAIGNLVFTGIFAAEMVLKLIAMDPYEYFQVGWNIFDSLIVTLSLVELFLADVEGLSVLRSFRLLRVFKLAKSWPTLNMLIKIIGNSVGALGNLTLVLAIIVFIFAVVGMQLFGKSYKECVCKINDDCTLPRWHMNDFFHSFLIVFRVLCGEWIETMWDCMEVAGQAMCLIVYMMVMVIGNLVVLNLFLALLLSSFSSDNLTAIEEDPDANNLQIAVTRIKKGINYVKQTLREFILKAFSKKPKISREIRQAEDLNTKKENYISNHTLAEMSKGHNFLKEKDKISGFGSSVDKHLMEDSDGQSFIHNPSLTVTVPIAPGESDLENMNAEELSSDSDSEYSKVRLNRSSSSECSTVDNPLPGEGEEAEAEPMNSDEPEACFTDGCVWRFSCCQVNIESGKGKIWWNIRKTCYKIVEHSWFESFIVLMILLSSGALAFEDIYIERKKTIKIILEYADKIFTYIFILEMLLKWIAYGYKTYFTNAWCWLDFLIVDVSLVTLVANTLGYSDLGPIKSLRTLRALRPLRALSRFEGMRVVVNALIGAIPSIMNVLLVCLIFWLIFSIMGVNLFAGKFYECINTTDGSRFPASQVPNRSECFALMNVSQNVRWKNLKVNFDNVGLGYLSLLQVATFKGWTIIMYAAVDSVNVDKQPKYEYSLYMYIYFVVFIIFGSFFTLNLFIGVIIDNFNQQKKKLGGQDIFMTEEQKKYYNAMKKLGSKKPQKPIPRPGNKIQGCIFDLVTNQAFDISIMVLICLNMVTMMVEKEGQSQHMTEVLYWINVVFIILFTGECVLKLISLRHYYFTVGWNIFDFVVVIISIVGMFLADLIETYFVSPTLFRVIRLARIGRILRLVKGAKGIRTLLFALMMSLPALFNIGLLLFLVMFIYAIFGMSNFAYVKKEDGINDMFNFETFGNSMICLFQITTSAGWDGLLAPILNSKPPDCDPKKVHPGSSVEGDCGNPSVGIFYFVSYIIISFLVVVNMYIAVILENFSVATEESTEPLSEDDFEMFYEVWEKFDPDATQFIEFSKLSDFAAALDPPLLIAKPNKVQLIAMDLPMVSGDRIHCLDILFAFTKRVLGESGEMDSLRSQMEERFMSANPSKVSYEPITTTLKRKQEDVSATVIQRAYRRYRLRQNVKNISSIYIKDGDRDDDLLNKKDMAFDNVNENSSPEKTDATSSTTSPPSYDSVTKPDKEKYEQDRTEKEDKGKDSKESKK
T7 sequence (O75762 whole entry): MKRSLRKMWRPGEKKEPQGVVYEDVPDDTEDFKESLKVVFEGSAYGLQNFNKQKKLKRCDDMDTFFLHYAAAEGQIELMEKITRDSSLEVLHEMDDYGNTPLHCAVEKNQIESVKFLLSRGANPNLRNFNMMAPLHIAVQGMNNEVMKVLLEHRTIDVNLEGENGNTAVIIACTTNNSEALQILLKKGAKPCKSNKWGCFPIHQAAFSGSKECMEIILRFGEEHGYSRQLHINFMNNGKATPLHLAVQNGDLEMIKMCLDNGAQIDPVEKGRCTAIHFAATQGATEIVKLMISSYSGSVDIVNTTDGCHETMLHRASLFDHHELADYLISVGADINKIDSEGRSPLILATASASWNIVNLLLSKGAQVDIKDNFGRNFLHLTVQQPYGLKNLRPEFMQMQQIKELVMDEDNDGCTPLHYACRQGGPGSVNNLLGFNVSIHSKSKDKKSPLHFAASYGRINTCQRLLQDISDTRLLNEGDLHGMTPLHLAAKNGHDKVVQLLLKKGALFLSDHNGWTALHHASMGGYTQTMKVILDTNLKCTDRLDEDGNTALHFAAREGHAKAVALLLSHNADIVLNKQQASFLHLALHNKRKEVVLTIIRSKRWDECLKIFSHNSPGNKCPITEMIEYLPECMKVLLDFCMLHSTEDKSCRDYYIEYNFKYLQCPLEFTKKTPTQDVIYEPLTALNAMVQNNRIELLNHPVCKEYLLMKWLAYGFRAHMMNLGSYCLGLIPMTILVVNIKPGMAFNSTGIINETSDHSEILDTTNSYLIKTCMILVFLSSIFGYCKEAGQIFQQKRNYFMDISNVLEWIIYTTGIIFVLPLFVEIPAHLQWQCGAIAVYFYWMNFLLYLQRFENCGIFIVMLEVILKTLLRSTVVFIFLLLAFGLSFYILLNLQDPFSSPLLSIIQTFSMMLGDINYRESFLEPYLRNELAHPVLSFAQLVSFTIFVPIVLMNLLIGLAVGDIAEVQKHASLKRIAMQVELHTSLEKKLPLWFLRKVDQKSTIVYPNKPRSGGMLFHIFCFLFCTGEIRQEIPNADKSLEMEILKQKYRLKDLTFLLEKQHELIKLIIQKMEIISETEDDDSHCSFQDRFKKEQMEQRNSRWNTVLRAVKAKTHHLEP

10 (GSQVQTNVKCQGGSCASVCRREIGVAAGKCINGKCVCYRN) [compound 10]
Activity of Nav1.7 with peptide, expressed as a percentage of the reference compound (Nav1.7; [1]): 105%
Activity of Nav1.7 with peptide, expressed as a percentage of the reference compound (Nav1.7; [2]): 98%
Activity of Nav1.7 with peptide (percentage of the reference compound) (Nav1.7; [1]): 106%
Activity of Nav1.7 with peptide (percentage of the reference compound) (Nav1.7; [2]): 90%
Activity of NR2A with peptide, expressed as a percentage of the reference compound (NR2A; peptide at 0.2 μM): 84%
Activity of NR2A with peptide (percentage of the reference compound) (NR2A; peptide at 20 μM): 65%
Activity of NR2B with peptide, expressed as a percentage of the reference compound (NR2B; peptide at 0.2 μM): 82%
Activity of NR2B with peptide (percentage of the reference compound) (NR2B; peptide at 20 μM): 98%
Activity of Cav2.2 with peptide, expressed as a percentage of the reference compound (Cav2.2; peptide at 0.2 μM): 98%
Activity of Cav2.2 with peptide (percentage of the reference compound) (Cav2.2; peptide at 20 μM): 94%
Activity of Cav2.1 with peptide, expressed as a percentage of the reference compound (Cav2.1; peptide at 0.2 μM): 104%
Activity of Cav2.1 with peptide (percentage of the reference compound) (Cav2.1; peptide at 20 μM): 96%
Activity of Kv2.1 with peptide, expressed as a percentage of the reference compound (Kv2.1; peptide at 0.2 μM): 88%
Activity of Kv2.1 with peptide (percentage of the reference compound) (Kv2.1; peptide at 20 μM): 109%
Activity of TRPA1 with peptide, expressed as a percentage of the reference compound (TRPA1; peptide at 0.2 μM): 108%
Activity of TRPA1 with peptide (percentage of the reference compound) (TRPA1; peptide at 20 μM): 107%
Activity of a3b4 with peptide, expressed as a percentage of the reference compound (α3β4; peptide at 0.2 μM): 97%
Activity of a3b4 with peptide (percentage of the reference compound) (α3β4; peptide at 20 μM): 104%
Activity of a4b2 with peptide, expressed as a percentage of the reference compound (α4β2; peptide at 0.2 μM): 96%
Activity of a4b2 with peptide (percentage of the reference compound) (α4β2; peptide at 20 μM): 94%
Activity of TRPV1 with peptide, expressed as a percentage of the reference compound (TRPV1; peptide at 0.2 μM): 111%
Activity of TRPV1 with peptide (percentage of the reference compound) (TRPV1; peptide at 20 μM): 98%
Activity of hERG with peptide, expressed as a percentage of the reference compound (hERG; peptide at 0.2 μM): 97%
Activity of hERG with peptide (percentage of the reference compound) (hERG; peptide at 20 μM): 80%
Activity of Nav1.5 with peptide, expressed as a percentage of the reference compound (Nav1.5; [3]): 93%
Activity of Nav1.5 with peptide, expressed as a percentage of the reference compound (Nav1.5; [4]): 90%
Activity of Nav1.5 with peptide (percentage of the reference compound) (Nav1.5; [3]): 114%
Activity of Nav1.5 with peptide (percentage of the reference compound) (Nav1.5; [4]): 116%
Activity of Kir2.1 with peptide, expressed as a percentage of the reference compound (Kir2.1; peptide at 0.2 μM): 100%
Activity of Kir2.1 with peptide (percentage of the reference compound) (Kir2.1; peptide at 20 μM): 92%
Activity of Kv1.1 with peptide, expressed as a percentage of the reference compound (Kv1.1; peptide at 0.2 μM): 117%
Activity of Kv1.1 with peptide (percentage of the reference compound) (Kv1.1; peptide at 20 μM): 84%
Activity of Kv1.3 with peptide, expressed as a percentage of the reference compound (Kv1.3; peptide at 0.2 μM): 101%
Activity of Kv1.3 with peptide (percentage of the reference compound) (Kv1.3; peptide at 20 μM): 93%
Activity of Kv1.2 with peptide, expressed as a percentage of the reference compound (Kv1.2; peptide at 0.2 μM): 135%
Activity of Kv1.2 with peptide (percentage of the reference compound) (Kv1.2; peptide at 20 μM): 77%
Activity of 5HT3a with peptide (percentage of the reference compound) (5HT3a): 104%
Activity of 5HT3a with peptide, expressed as a percentage of the reference compound (5HT3a): 90%
Activity of GABA with peptide, expressed as a percentage of the reference compound (GABA; peptide at 0.2 μM): 129%
Activity of GABA with peptide (percentage of the reference compound) (GABA; peptide at 20 μM): 111%
